Measured values as given in publication PMC9129000, “RADA-dependent branch migration has a predominant role in plant mitochondria and its defect leads to mtDNA instability and cell cycle arrest”.

Experiments:
[1] = molecular target: Arabidopsis RADA recombinant protein (His-tagged, WT) (Arabidopsis thaliana); assay: dynamic light scattering; protein fraction of gel filtration peak 2 (the smaller oligomer)
RADA [2] = molecular target: T1, RADA (Arabidopsis thaliana, UniProt F4K8X8 49-627); assay: EMSA; 20 mM Tris-HCl pH 7.5, 50 mM KCl, 5 mM MgCl2, 0.5 mM EDTA, 10% glycerol, 1 mM DTT, protease inhibitors; 20 C, 20 min; 8 or 4.5% PAGE in TBE at 4 C; conditions: protein: recombinant; tags: N-terminal His (pET28a); chain copies: 6; label: 5'-32P; single strand
T1 sequence: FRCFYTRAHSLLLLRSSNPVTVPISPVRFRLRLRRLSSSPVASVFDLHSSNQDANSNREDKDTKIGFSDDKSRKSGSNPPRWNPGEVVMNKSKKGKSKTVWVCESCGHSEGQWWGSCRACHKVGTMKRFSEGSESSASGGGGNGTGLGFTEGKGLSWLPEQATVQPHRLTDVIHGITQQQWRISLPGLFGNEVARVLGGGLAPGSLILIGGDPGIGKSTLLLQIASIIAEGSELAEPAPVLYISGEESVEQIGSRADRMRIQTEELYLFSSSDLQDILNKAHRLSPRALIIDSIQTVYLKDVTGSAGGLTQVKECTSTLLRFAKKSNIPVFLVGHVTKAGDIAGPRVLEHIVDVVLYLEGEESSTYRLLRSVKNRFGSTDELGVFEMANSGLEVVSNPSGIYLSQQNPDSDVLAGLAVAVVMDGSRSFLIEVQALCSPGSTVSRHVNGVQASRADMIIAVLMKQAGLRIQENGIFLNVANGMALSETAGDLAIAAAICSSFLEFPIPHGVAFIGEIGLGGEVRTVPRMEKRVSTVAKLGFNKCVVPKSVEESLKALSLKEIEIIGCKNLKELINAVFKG

RADA [3] = molecular target: T1, RADA; assay: EMSA; probe and homologous competitor; 20 mM Tris-HCl pH 7.5, 50 mM KCl, 5 mM MgCl2, 0.5 mM EDTA, 10% glycerol, 1 mM DTT, protease inhibitors; 20 C, 20 min; 8 or 4.5% PAGE in TBE at 4 C; conditions: protein: recombinant; tags: N-terminal His (pET28a); chain copies: 6; label: 5'-32P as probe; single strand
RADA [4] = molecular target: T1, RADA; assay: competition; competes as efficiently as homologous 30-mer; 20 mM Tris-HCl pH 7.5, 50 mM KCl, 5 mM MgCl2, 0.5 mM EDTA, 10% glycerol, 1 mM DTT, protease inhibitors; 20 C, 20 min; 8 or 4.5% PAGE in TBE at 4 C; conditions: protein: recombinant; tags: N-terminal His (pET28a); chain copies: 6; single strand

For “Arabidopsis RADA recombinant protein (His-tagged, WT) (enzyme)”, the stoichiometry N [1] was 6.

B1: EMSA ssDNA (ssDNA)
DNA: GACGCTGCCGAATTCTACCAGTGCCTTGCTAGGACATCTTTGCCCACCTGCAGGTTCACCC
B1: binds (RADA [2]).

AGTCAGTCAGTCAGTCAGTCAGTCAGTCAG (ssDNA) [EMSA 30-mer 7x[AGTC]AG]: binds (RADA [3]).

TTTTTTTTTTTTTTTTTTTTTTTTTTTTTT (ssDNA) [poly-dT 30-mer]: binds (RADA [4]).
